# Measurements taken from US20090053745A1 (RUTGERS THE STATE UNIVERSITY OF NEW JERSEY, published 2009).
# B1: GST-snapin (first 68 amino acids) (other)
# chain: MAGAGSAAVSGAGTPVAGPTGRDLFAEGLLEFLRPAVQQLDSHVHAVRESQVELREQIDNLATELCRI
# notes: also called snapin(1-68); N-terminal half of snapin; not shown: glutathione S-transferase (GST) fusion partner
# B2: snapin (endogenous, rat brain extract) (other, UniProt P60192 2-136, looked up)
# chain: AAAGSAAVSGAGTPVAGPTGRDLFAEGLLEFLRPAVQQLDSHVHAVRESQVELREQIDNLATELCRINEDQKVALDLDPYVKKLLNARRRVVLVNNILQNAQERLRRLNHSVAKETARRRAMLDSGVYPPGSPSK
# notes: The smaller band may be a degradation product or a modified snapin
# Tests used:
# [1] = target: T1, cypin (endogenous, rat brain extract) (rat, UniProt Q9WTT6 1-454); experiment: GST affinity chromatography with rat brain extract
# T1 sequence (looked up): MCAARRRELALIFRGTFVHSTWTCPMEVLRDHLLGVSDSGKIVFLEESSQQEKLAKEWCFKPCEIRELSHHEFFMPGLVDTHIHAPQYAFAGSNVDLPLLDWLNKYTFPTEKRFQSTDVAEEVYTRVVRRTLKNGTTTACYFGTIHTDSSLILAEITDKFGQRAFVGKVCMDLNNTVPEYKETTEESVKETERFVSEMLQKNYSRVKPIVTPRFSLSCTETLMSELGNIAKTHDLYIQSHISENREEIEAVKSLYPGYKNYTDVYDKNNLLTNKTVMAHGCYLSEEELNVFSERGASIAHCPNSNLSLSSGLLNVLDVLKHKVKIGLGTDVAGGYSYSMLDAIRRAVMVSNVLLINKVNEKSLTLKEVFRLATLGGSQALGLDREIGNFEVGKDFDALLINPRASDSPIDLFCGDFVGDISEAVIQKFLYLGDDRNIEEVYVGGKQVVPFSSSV
# Method: COS-7 cells were transfected with either pEGFP-C1-snapin, pDsRed-N1-snapin, pEGFP-C1-cypin or pDsRed-N1-cypin using Lipofectamine 2000 (Invitrogen, Carlsbad, Calif.) as described by manufacturer. Cells were washed with cold PBSE (phosphate buffered saline and 1 mM EDTA) and scraped into 5 mL of TEEN (25 mM Tris-HCl, pH 7.4, 1 mM EDTA, 1 mM EGTA, 100 mM NaCl). Cells were homogenized using a Potter-Elvehjem tissue grinder (20 strokes). Phenylmethylsulfonyl fluoride and DTT were added to lysates to final concentrations of 1 mM and cells were further lysed by passing the extract through a 25 gauge needle 5 times. Lysates were centrifuged at 12,000×g for 10 minutes at 4° C. Triton X-100 was added to the supernatant to a final concentration of 1% and incubated at 4° C. for 30 minutes. Lysates were centrifuged at 12,000×g for 10 minutes at 4° C. COS-7 cell lysates were incubated with glutathione-sepharose beads bound to 25 μg of the appropriate GST-fusion proteins for 1 hour at 4° C. Beads were washed three times with TEEN. Bound proteins were eluted with 0.5% SDS and 100 mM NaCl. Proteins were resolved on a 10% SDS polyacrylamide gel and transferred to PVDF membrane. Blots were probed with the indicated antibodies. For experiments using rat brain extracts, the extracts were prepared exactly as described above except that they were not passed through a 25 gauge needle. […]
# GST-cypin = target: T2, GST-cypin (UniProt Q9WTT6 1-454); experiment: competition co-immunoprecipitation of purified cypin (2 µM) and tubulin heterodimers (7 µM); ligand to be displaced: tubulin heterodimers; strip labelled α-Tubulin on the sheet
# T2 construct: Expressed in E. coli, purified on glutathione sepharose, eluted with glutathione and dialysed; No removal of GST is reported; also called purified cypin; not shown: glutathione S-transferase (GST) fusion partner
# T2 sequence (looked up): T1 sequence (looked up)
# Method: GST, GST-cypin, and GST-snapin were expressed in E. coli and purified using glutathione sepharose as previously described (Firestein et al., 1999). Purified proteins were eluted from the beads using glutathione and dialyzed against phosphate buffered saline. Purified cypin (2 μM) and the indicated concentrations of purified snapin were mixed with tubulin heterodimers (7 μM) in PEM buffer (80 mM PIPES, pH 6.9, 2 mM MgCl₂, 0.5 mM EGTA) containing 5% glycerol for 4-6 hours at 4° C. The mixtures were subjected to immunoprecipitation using a monoclonal antibody raised against tubulin. Binding of purified proteins was assayed by SDS-PAGE followed by Western blotting using a rabbit polyclonal antibody raised against cypin (Akum et al., 2004).
# Since snapin binds to cypin's CRMP homology domain, which is responsible for binding tubulin heterodimers (Akum et al., 2004), it is possible that snapin could compete tubulin binding to cypin. To address this question, co-immunoprecipitation of purified cypin and tubulin heterodimers in the presence of full-length snapin or the N-terminal half of snapin (amino acids 1-68) was performed. No association of snapin with tubulin heterodimers by co-immunoprecipitation or affinity chromatography was found in the previous experiments (data not shown). […]
# [2] = target: PSD-95 (endogenous, rat brain extract) (rat, UniProt P31016 1-724, limits assumed); experiment: co-immunoprecipitation from rat brain extract with anti-snapin
# Method: (§1) For co-immunoprecipitation studies, one rat brain was homogenized in 10 ml of TEE (25 mM Tris, 1 mM EGTA, 1 mM EDTA)+1 mM PMSF. Triton X-100 was added to a final concentration of 1% and proteins were extracted for 1 hour at 4° C. The extract was centrifuged at 12,000×g to remove insoluble material and the supernatant was incubated with either anti-cypin, anti-snapin, preimmune serum, rabbit IgG, anti-tubulin, or mouse IgG. Protein A beads were added and after a 1 hour incubation, the beads were washed with TEE+0.2% Triton X-100. Immunoprecipitated proteins were eluted with protein loading buffer and resolved by SDS-PAGE and transferred to PVDF membrane. Blots were probed with the indicated antibodies. Experiments were performed in duplicate or triplicate.
# [3] = target: SNAP-25 (endogenous, rat brain extract) (rat, UniProt P60881 1-206); experiment: as above
# Method: as §1
# SNAP-25 (endogenous, rat brain extract), sequence (P60881 whole entry): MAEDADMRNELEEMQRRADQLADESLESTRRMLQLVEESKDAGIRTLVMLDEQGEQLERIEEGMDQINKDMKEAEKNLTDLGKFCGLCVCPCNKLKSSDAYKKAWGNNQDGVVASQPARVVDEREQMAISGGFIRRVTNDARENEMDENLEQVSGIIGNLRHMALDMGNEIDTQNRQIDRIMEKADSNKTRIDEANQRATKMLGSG
# PSD-95 (endogenous, rat brain extract), sequence (P31016 whole entry): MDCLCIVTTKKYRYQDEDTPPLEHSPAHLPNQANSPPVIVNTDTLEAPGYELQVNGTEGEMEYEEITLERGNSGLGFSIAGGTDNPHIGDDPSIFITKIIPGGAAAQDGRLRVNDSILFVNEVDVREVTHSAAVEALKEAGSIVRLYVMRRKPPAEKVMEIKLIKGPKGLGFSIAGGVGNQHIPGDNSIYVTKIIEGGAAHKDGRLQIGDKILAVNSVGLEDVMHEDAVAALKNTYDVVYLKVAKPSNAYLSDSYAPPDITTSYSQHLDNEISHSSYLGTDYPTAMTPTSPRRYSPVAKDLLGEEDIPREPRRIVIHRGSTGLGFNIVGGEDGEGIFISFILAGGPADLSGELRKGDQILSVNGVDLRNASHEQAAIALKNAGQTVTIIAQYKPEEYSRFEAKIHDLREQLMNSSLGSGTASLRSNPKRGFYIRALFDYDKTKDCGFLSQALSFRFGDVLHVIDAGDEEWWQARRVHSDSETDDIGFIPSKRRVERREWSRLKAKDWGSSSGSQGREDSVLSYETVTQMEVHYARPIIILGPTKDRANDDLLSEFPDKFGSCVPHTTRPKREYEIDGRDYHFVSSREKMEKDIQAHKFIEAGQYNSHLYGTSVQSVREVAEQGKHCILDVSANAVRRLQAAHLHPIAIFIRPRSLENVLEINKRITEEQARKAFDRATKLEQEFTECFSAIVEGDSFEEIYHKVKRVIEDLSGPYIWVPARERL
Binder,binding result [1],binding result (GST-cypin),binding result [2],binding result [3]
B1,no binding,no binding (tested: 4 µM),,
B2,,,no binding,no binding
